Reference: patent US20050049402A1

Experiments:
[1] = target: monkey (cynomolgous macaque) GST-TNFα (cynomolgous macaque) (UniProt P79337); assay: ELISA, plate coated with 2 µg/ml monkey (cynomolgus macaque) GST-TNFα, HRP goat anti-human IgG detection
[2] = target: human TNFα (Tumor Necrosis Factor-alpha), soluble (human) (UniProt P01375); assay: cell-based or functional assay
[3] = target: transmembrane mutant TNFα expressed on the surface of CHO cells (UniProt P01375); assay: cell-based or functional assay
Chain of transmembrane mutant TNFα expressed on the surface of CHO cells (P01375 whole entry, change not shown, form in doubt): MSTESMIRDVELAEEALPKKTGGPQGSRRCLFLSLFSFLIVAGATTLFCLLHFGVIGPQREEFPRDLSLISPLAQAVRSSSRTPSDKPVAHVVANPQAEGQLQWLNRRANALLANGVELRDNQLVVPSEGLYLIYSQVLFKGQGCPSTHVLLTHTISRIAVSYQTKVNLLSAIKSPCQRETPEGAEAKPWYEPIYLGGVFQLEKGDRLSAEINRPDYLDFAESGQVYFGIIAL

Chain of human TNFα (Tumor Necrosis Factor-alpha), soluble (human) (P01375 77-233): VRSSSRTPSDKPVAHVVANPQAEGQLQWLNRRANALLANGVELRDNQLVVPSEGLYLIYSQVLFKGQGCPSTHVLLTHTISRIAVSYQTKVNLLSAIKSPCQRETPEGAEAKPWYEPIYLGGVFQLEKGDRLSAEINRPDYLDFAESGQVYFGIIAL
Chain of monkey (cynomolgous macaque) GST-TNFα (cynomolgous macaque) (P79337 77-233): as the sequence (P01375 77-233) above, with L37V, R44T, T72N, R138L counted along it

| Substance | EC50 (read off the curve) [1] [ng/mL] | IC50 1 hr Pre-incubation, TNF induced apoptosis in MCF-7 cells [2] [nM] | IC50 18 hr Pre-incubation, TNF induced apoptosis in MCF-7 cells [2] [nM] | In vivo Potency (IC50), ALT, hTNFα/D-GalN hepatic injury in mice [2] [nM] | In vivo Potency (IC50), human TNFα-induced IL-6 in mice [2] [nM] | ADCC (%) [3] [%] | CDC (%) [3] [%] |
| --- | --- | --- | --- | --- | --- | --- | --- |
| Etanercept (Fc fusion) | 3 | 0.0034 | 0.0022 | 27 | 27 |  |  |
| irrelevant human IgG1 control antibody |  |  |  |  |  | 2 | 2 |
